From patent publication US20210292393A1 (published 2021) come the findings set out here.

Where a chain is given by its changes, count along the chain named.

B1: antibody 557 (antibody, V domains shown)
VH: QVQLVESGGGVVQPGRSLRLSCAASGFTFSSYAMHWVRQAPGKGLEWVAVISYDGSNKYYADSVKGRFTISRDNSKNTLYLQMNSLRAEDTAVYYCARMYSGSYRGGFDYWGQGTLVTVSS
VL: not shown
B2: antibody 558 (antibody, V domains shown)
VH: B1 VH with M99G, Y100Q, S101G, S103G, R105Y, G106Y, F108M, Y110V, L116T
VL: QSALTQPASVSGSPGQSITISCTGTSSDVGGYNYVSWYQQHPGKAPKLMIYDVSNRPSGVSNRFSGSKSGNTASLTISGLQAEDEADYYCSSYTSSSTLYVFGTGTKVTVL
B3: antibody 562 (antibody, V domains shown)
VH: B1 VH with M99A, Y100S, S103G, R105Q, G107P, Y110P
VL: QSALTQPASVSGSPGQSITISCTGTSSDVGGYNYVSWYQQHPGKAPKLMIYDVSNRPSGVSNRFSGSKSGNTASLTISGLQAEDEADYYCSSYTSSSTLLYVFGTGTKVTVLG
B4: antibody 585 (antibody, V domains shown)
VH: QVQLVESGGGVVQPGRSLRLSCAASGFTFATYAMHWVRQAPGKGLEWVALISHDGSNKHYADSVKGRFTISRDNSKKTLYLQMNSLRAEGTAIYYCARESLEAAAPPFDYWGQGTLVTVSS
VL: SYELTQPPSVSVSPGQTATIICSGDKLGEKYASWYQQKPGQSPALVIYQDRKRPSGIPERFSGSNSGNTATLTISGTQAMDEADYYCQAWDSSNSVVFGGGTKLTVP
B5: antibody 530 (antibody, V domains shown)
VH: EVQLVESGGGLVQPGGSLRLSCAASGFTFSSYWMSWVRQAPGKGLEWVANIKQDGSEKYYVDSVKGRFTISRDNAKNSLYLQMNSLRAEDTAVYYCAREPQLWSEYYFDYWGQGTLVTVSS
VL: DIQMTQSPSSLSASVGDRVTITCRASQGISSWLAWYQQKPEKAPKSLIYAASSLQSGVPSRFSGSGSGTDFTLTISSLQPEDFATYYCQQYNSYPPTFGQGTRLEIK
notes: also called mAb 530
B6: antibody 554 (antibody, V domains shown)
VH: QVQLVESGGGVVQPGRSLRLSCAASGFTFSSYAMHWVRQAPGKGLEWVAVISYDGSNKYYADSVKGRFTISRDNSKNTLYLQMNSLRAEDTAVYYCARPQGGNYYYYGMDVWGQGTTVTVSS
VL: B5 VL with L11V, E41G, S46L, Y91A, Y94F, P96L, Q100G, R103K, L104V
B7: antibody 559 (antibody, V domains shown)
VH: QVQLQESGPGLVKLSETLSLTCTVSGYSISSGYYWGWIRQPPGKGLEWIGSIYHSGSTYYNPSLKSRVTISVDTSKNQFSLKLSSVTAADTAVYYCAREETLGSSWYESYIDYWGQGTLVTVSS
VL: SYVLTQPPSVSVAPGKTARITCGGNNIGSKSVHWYQQKPGQAPVLVIYYDSDRPSGIPERFSGSNSGNTATLTISRVEAGDEADYYCQVWDSSSDHPRVFGGGTKLTVL
B8: antibody 552 (antibody, V domains shown)
VH: QVQLVQSGAEVKKPGSSVKVSCKASGGTFSSYGISWVRQAPGQGLEWMGRIIPILGIANYAQKFQGRVTITADKSTSTAYMELSSLRSEDTAVYYCARAVYAAGDDDYYYYYGMDVWGQGTTVTVSS
VL: SYELTQPPSVSVSPGQTARITCSGDALPKQYAYWYQQKPGQAPVVVIYKDSDRPSGIPERFSGSSSGTTVTLTISGVQAEDEADYYCQSADSSGTYQVFGTGTKVSVL
B9: antibody 535 (antibody, V domains shown)
VH: EVQLVESGGGLIQPGGSLRLSCAASGFTVSSNYMSWVRQAPGKGLEWVSVIYSGGSTYYADSVKGRFTISRDNSKNTLYLQMNSLRAEDTAVYYCARDLTEEGDFWSASSYRRYYYYGMDVWGQGTTVTVSS
VL: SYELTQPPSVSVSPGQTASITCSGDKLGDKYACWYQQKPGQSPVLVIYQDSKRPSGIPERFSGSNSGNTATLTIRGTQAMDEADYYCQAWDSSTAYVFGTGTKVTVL
B10: antibody 342 (antibody, V domains shown)
VH: EVQLVQSGAEVKKPGATVKISCKVSGYTFTDYYMHWVQQAPGKGLEWMGLVDPEDGETIYAEKFQGRVTITADTSTDTAYMELSSLRSEDTAVYYCATGGVSVWFREFPASYSGSYLGYWGQGTLVTVSS
VL: not shown
B11: antibody 340 (antibody, V domains shown)
VH: QVQLVQSGAEVKKPGASVKVSCKASGYTFTSYDINWVRQATGQGLEWMGWMNPNSGNTGYAQKFQGRVTMTRNTSISTAYMELSSLRSEDTAVYYCARGRYCTGGVCWGDWYFDLWGRGTLVTVSS
VL: QSVLTQPPSVSGAPGQRVTISCTGSSSNIGAGYDVHWYQQLPGTAPKFLIYGNSNRPSGVPDRFSGSKSGTSASLAITGLQAEDEADYYCQSYDSSLSGPVFGGGTKLTVL
B12: antibody 337 (antibody, V domains shown)
VH: QVQLVESGGGVVQPGRSLRLSCAASGFTFSSYGMHWVRQAPGKGLEWVAIIWYDGSNKYYADSVKGRFTISRDNSKNTLYLQMNSLRAEDTAVYYCAKDTGGYCSGGSCYPESYFDYWGQGTLVTVSS
VL: B7 VL with S75N, S92G, P97L, R98Y, G102T, L106V
B13: antibody 333 (antibody, V domains shown)
VH: QVHLVESGGGVVLPGRSLRLSCSASQFIFSNYDMHWVRQSPGMGLEWVAGISSDGSDKYYIDSVRGRFTISRDNAKNTLFLQMNSLTTEDTAVYSCAKGGGKFGQYWGRGTLVTVSS
VL: AIQMTQSPSSLSASVGDRVTITCRASQVIRNDLAWFQQKPGEAPNLLVYSASNLQSGVPSRFSGSGSGTDFTLTISSLQPEDFATYYCLQDYSYPYTFGQGTKLDMK
B14: antibody 343 (antibody, V domains shown)
VH: QVQLVESGGDVVQPGTSLRLSCAASGFTFNNYGFHWVRQAPGKGLEWVALISSDGASTHYADSVKGRFTISRDSSVNTLYLQMNSLSLEDTAVYYCATGHCGTTCYYFDYWGQGTLVSVSS
VL: DIQVTQSPSYLSASVGDRVTITCRASQTISTFLQWYQQKVGKAPKLLIYAASTLQSGVPSRFSGSGSGTDFSLTISSLQPEDFATYYCQQSYSAPLSFGGGTKVEIK
B15: antibody 331 (antibody, V domains shown)
V domain 1: QITLKESGPTLVKPTETLTLTCSFSGFSLTKTGEAAGWIRQAPGRALEWVTVIFWDDDKRYSPSLQNRISVTKDTSKNQVVLRMTNVARFDTGTYFCWAMGGPGKEYFGQGTLVAVSS
V domain 2: QSVLTQPPSVSGAPGQRVTISCTGTSSSIGPYSDVHWYQHVSGKAPRLLIFGNSNRPSGVPDRFSGSKSGTSASLVIAGLQAEDEADYYCQSYDSSLGEIYVFGTGTTVTVL
B16: antibody 339 (antibody, V domains shown)
V domain 1: B15 V domain 1 with K31R, N67S, I69L, S70T, R83T, G93A, L113Q
V domain 2: B15 V domain 2
B17: antibody 323 (antibody, V domains shown)
VH: QVQLVQSGAEVKKPGASVKVSCKVSGYTLTELSMHWVRQAPGKGLEWMGGFDPEDGETIYAQKFQGRVTMTEDTSTDTAYMELSSLRSEDTAVYYCATSTIFAPGGWFDPWGQGTLVTVSS
VL: QSALTQPASVSGSPGQSITISCTGTSSDVGSYNLVSWYQQHPGKAPKLMIYEVSKRPSGVSNRFSGSKSGNTASLTISGLQAEDEADYYCCSYAGSTHYVFGTGTKVTVL
B18: antibody 320 (antibody, V domains shown)
VH: QVQLVQSGAEVKKPGASVKVSCKASGYTFTSYGISWVRQAPGQGLEWMGWISAYNGNTNYAQKLQGRVTMTTDTSTRTAYMELRSLRSDDTAVYYCARVGCYYDSSGYSCAENFQHWGQGTLVTVSS
VL: QSVLTQPPSVSGAPGQRVTISCTGSSSNIGAGYDVHWYQQLPGTAPKLLIYGNSNRPSGVPDRFSGSKSGTSASLAITGLQAEDEADYYCQSYDSSLSALFGGGTKLTVL
B19: antibody 324 (antibody, V domains shown)
VH: QVQLQESGPGLVKPSGTLSLTCAVSGGSISSSNWWSWVRQPPGKGLEWIGEIYHSGSTNYNPSLKSRVTISVDNSKNQFSLKLSSVTAADTAVYYCARESVAAAGISYYYYGMDVWGQGTTVTVSS
VL: EIVLTQSPGTLSLSPGERATLSCRASQSVSGRYLAWYQQKPGQAPRLLIYGASSRATGIPDRFSGSGSGTDFTLTISRLEPEDFAVYYCQHYGSSPGTFGQGTRLEIK
B20: antibody 328 (antibody, V domains shown)
VH: B19 VH
VL: DIQMTQSPSSLSASVGDRVTITCRASQGIRNDLGWYQQKPGKAPKRLIYAASSLQSGVPSRFSGSGSGTEFTLTVSGLQPEDFATYYCLQYNSSPLTFGGGTKVEIK
B21: antibody 329 (antibody, V domains shown)
VH: EVQLVESGGGLVQPGGSLRLSCAASGFTFSSYWMHWVRQAPGKGLVWVSRINSDGSSTSYADSVKGRFTISRDNAKNTLYLQMNSLRAEDTAVYYCAREGIVATITLDYWGQGTLVTVSS
VL: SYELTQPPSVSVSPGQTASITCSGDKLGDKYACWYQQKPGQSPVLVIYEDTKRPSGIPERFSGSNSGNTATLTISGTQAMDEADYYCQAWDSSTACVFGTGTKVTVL
B22: antibody 332 (antibody, V domains shown)
VH: QVTLRESGPALVKPTQTLTLTCTFSGFSLSTSGMCVSWIRQPPGKALEWLALIDWDDDKYYSTSLKTRLTISKDTSKNQVVLTMTNMDPVDTATYYCARIHDDILTGYHYVDYWGQGTLVTVSS
VL: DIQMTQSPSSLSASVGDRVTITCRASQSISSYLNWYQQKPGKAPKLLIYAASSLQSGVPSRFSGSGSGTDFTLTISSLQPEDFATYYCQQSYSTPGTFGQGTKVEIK

The target of one assay is T1, SARS-CoV-2 spike protein (SARS-CoV-2, UniProt P0DTC2 14-1208).
T1 construct: also called SARS-CoV-2 S protein; antigen of interest
Put plainly: HT-SPR, Carterra LSA; mAb coupled to chip, antigen injected; 1:1 fit.
A word on the Kd: it is the concentration at which binding is half-saturated. In general, koff refers to the rate constant with which the complex falls apart. The term kon denotes the rate constant with which the complex forms. With B1, the affinity, expressed as Kd, was 0.144 nM; the koff was determined as 3.35e-05 s⁻¹; the kon is 233000 M⁻¹ s⁻¹. On the same counts, the results for B2 are 0.237 nM, 8.94e-05 s⁻¹ and 378000 M⁻¹ s⁻¹. On the same counts, the results for B3 are 0.0211 nM, 1.16e-05 s⁻¹ and 548000 M⁻¹ s⁻¹. On the same counts, the results for B4 are 0.248 nM, 4.59e-05 s⁻¹ and 185000 M⁻¹ s⁻¹. B5 showed a Kd of 2.19 nM, a koff of 0.000209 s⁻¹ and a kon of 95400 M⁻¹ s⁻¹.

In turn, B6 had a Kd of 0.129 nM, a koff of 3.5e-05 s⁻¹ and a kon of 271000 M⁻¹ s⁻¹.

B7 yielded a dissociation constant (Kd) of 32.2 nM, a koff of 0.000631 s⁻¹ and a kon of 19600 M⁻¹ s⁻¹.

Consider B8, for which the Kd came to 0.0393 nM, the koff was 1.01e-05 s⁻¹ and the kon worked out at 258000 M⁻¹ s⁻¹. On to B9, for which binding was characterised by a dissociation constant (Kd) of 0.395 nM, the koff came to 4.15e-05 s⁻¹ and the kon turned out to be 105000 M⁻¹ s⁻¹.

The target of a further assay is SARS-CoV spike protein (SARS-CoV, UniProt P59594 14-1190).
Assay: not given
Turning to B10, the “median fluorescence intensity, fold over isotype control” value was 1.16 fold over isotype. Still for that read-out and setting: as for B11, the figure is 1.26 fold over isotype; as for B12, 439 fold over isotype; as for B13, 1.21 fold over isotype. The same measure, in the same setting: then B14, with 1.19 fold over isotype. Still for that read-out and setting: then B15, with 1.34 fold over isotype; and B16, with 1.27 fold over isotype. Take B17: the “median fluorescence intensity, fold over isotype control” value was 1.29 fold over isotype. The same measure, in the same setting: then B18, with 989 fold over isotype. Still for that read-out and setting: then B19, with 1.14 fold over isotype; and B20, with 1.22 fold over isotype; and B21, with 2.46 fold over isotype. Same read-out and setting: then B22, with 0.99 fold over isotype.
